According to patent US20020147133A1:

Key:
[1] = biological target: SH2 domain of the tyrosine kinase Fyn (UniProt P06241); test: ratio of IC50 values, competition with pYEEI beads
[2] = biological target: SH2 domain of the tyrosine kinase Fyn (UniProt P06241); test: isothermal titration calorimetry, Fyn SH2 domain binding to the FKpYEEI-FKBP52 complex
[3] = biological target: SH2 domain of the tyrosine kinase Fyn (UniProt P06241); test: ratio of Kd values, isothermal titration calorimetry
[4] = biological target: SH2 domain of the tyrosine kinase Fyn (UniProt P06241); test: competition with pYEEI beads for radioactive Fyn SH2 domain (200 nM), FKBP52 at 4.5 uM
[5] = biological target: recombinant FKBP52 with a tag of six histidine residues at its N-terminus (UniProt Q02790); test: isothermal titration calorimetry, 25 C
recombinant FKBP12 = recombinant FKBP12 (UniProt P62942); test: isothermal titration calorimetry, 25 C
[6] = biological target: SH2 domain of the tyrosine kinase Fyn (UniProt P06241); test: isothermal titration calorimetry, 25 C
[7] = biological target: SH2 domain of the tyrosine kinase Fyn (UniProt P06241); test: competition with pYEEI beads for radioactive Fyn SH2 domain (200 nM), no FKBP12
[8] = biological target: phosphotyrosine peptide NH2-pYEEI-COOH; test: radioactive SH2 domain (200 nM) on pYEEI Affi-Gel beads, scintillation counting
[9] = biological target: phosphotyrosine peptide NH2-pYEEI-COOH; test: radioactive SH2 domain on an increased amount of pYEEI Affi-Gel beads
[10] = biological target: SH2 domain of the tyrosine kinase Fyn (UniProt P06241); test: competition of free pYEEI with pYEEI beads for radioactive Fyn SH2 domain (200 nM)
[11] = biological target: SH2 domain of the tyrosine kinase Fyn (UniProt P06241); test: competition with pYEEI beads for radioactive Fyn SH2 domain (200 nM), FKBP12 at 20 uM
[12] = biological target: SH2 domain of the tyrosine kinase Fyn (UniProt P06241); test: isothermal titration calorimetry, Fyn SH2 domain binding to the SLFpYEEI-FKBP12 complex
[13] = biological target: SH2 domain of the tyrosine kinase Fyn (UniProt P06241); test: competition with pYEEI beads for radioactive Fyn SH2 domain (200 nM), no FKBP52

Chain of SH2 domain of the tyrosine kinase Fyn (P06241 143-248): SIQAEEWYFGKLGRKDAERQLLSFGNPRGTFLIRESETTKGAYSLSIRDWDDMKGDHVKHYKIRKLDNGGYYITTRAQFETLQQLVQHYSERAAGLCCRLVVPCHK
Chain of recombinant FKBP52 with a tag of six histidine residues at its N-terminus (Q02790 whole entry): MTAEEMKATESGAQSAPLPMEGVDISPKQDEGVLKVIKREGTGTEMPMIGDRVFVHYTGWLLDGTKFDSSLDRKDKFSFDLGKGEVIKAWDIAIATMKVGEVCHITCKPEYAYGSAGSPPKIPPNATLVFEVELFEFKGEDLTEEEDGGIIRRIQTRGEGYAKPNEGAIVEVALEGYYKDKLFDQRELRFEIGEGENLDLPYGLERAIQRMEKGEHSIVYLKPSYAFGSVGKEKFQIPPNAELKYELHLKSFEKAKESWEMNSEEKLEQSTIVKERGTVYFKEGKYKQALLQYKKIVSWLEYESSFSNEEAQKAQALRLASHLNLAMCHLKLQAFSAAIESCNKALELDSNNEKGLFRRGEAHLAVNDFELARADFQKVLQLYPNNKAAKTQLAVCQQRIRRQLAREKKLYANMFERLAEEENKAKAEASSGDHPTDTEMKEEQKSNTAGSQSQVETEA
Chain of N-terminal SH2 domain of PLC (P19174 550-657): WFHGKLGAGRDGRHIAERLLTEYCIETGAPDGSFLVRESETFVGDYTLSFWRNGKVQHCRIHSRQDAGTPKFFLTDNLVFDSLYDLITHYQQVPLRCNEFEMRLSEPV
Chain of recombinant FKBP12 (P62942 whole entry, the tested form may be a part): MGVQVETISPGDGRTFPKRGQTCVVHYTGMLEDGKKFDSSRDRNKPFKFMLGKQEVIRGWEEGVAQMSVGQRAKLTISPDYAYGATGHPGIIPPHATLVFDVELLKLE

Substance “FKpYEEI-FKBP52 complex (binary complex of FKBP52 and FKpYEEI) (from UniProt Q02790 1-459)” has a fold enhancement of affinity against FKpYEEI alone [1] of 3 fold, a fold enhancement of affinity against pYEEI [1] of 4.4 fold and a Kd [2] of 0.13 µM. The fold enhancement of Kd against FKpYEEI alone [3] was 4 fold and the IC50 [4] was 0.25 µM.

With “SLFpYEEI (SLF coupled to the N-terminus of the pYEEI peptide)” the Kd [5] was 5 µM, the Kd (recombinant FKBP12) was 0.061 µM and the Kd [6] was 0.183 µM. The IC50 [7] was 0.25 µM.

With “SH2 domain of the tyrosine kinase Lck (from UniProt P06239 120-226)” the percent of SH2 domain bound to the beads [8] was 15% and the percent of SH2 domain bound to the beads [9] was 25%.

Work on N-terminal SH2 domain of PLC yielded a percent of SH2 domain bound to the beads [8] of 25% and a percent of SH2 domain bound to the beads [9] of 40%.

For phosphotyrosine peptide NH2-pYEEI-COOH, the IC50 [10] was 1.1 µM.

“SLFpYEEI-FKBP12 complex (binary complex of SLFpYEEI and FKBP12) (from UniProt P62942 1-108)” showed a fold reduction of affinity against SLFpYEEI alone [1] of 6 fold, an IC50 [11] of 1.5 µM and a Kd [12] of 1.5 µM.

In the case of “FKpYEEI (pYEEI peptide chemically linked to FK506)”, the Kd [5] is reported as 0.15 µM, the Kd (recombinant FKBP12) is reported as 0.045 µM and the Kd [6] is reported as 0.52 µM. For the same substance, the IC50 [13] was 0.75 µM.

With “SH2 domain of the tyrosine kinase Fyn (from UniProt P06241 143-248)” the percent of SH2 domain bound to the beads [8] was 65% and the percent of SH2 domain bound to the beads [9] was 80%.
